Test results: US20240218393, “VECTORS ENCODING GENE EDITING SYSTEMS AND USES THEREOF” (Mammoth Biosciences, Inc., published 2024)

T1: CasM.19952
T1 chain: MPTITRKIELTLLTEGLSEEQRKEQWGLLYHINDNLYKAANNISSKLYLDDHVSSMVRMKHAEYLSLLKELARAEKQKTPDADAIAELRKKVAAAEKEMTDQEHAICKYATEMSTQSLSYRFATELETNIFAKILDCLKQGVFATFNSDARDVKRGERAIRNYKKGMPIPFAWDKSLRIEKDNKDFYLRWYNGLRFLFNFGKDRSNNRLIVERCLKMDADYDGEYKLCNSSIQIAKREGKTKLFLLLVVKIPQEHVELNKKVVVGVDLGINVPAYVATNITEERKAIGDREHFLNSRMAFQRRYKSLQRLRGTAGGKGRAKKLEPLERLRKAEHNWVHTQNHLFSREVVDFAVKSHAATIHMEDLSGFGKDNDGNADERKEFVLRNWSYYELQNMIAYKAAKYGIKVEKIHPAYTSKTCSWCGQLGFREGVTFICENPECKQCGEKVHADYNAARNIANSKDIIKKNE


Target: T1, CasM.19952
Experiment: cell_activity; HEK293T, plasmid lipofection; PAM TCG or KYG (Table 1.1)
Settings: tags: expressed from plasmid or scAAV
Procedure: CasM.19952 was tested for its ability to produce indels in HEK293T cells. Briefly, a plasmid encoding CasM.19952 and a guide RNA was delivered by lipofection to HEK293T cells. This was performed for a variety of guide RNAs targeting up to twenty-four loci adjacent to biochemically determined PAM sequences. Indels were detected by next generation sequencing of PCR amplicons at the targeted loci and indel percentage was calculated as the fraction of sequencing reads containing insertions or deletions relative to an unedited reference sequence. Sequencing libraries with less than 20% of reads aligning to the reference sequence were excluded from the analysis for quality control purposes. “No plasmid” and SpyCas9 were included as negative and positive controls, respectively. […] TABLE 8 describes the sequences of the single guide RNAs tested that provided the greatest percent of reads with indels. Non-bold, non-italicized, capital letters indicate the tracrRNA region of the guide RNA; italicized letters indicate a linker; bold letters indicate the repeat sequence; and the lowercase letters represent the spacer sequence.

Row | Binder | activity [% indel reads]
1 | sgRNA SEQ 202 ; target of sgRNA SEQ 202 (protospacer) (ssRNA ; dsDNA) RNA: UGGGGCAGUUGGUUGCCCUUAGCCUGAGGCAUUUAUUGCACUCGGGAAGUACCAUUUCUCAGAAAUGGUACAUCCAACUCUAGGCGCCCGCUAAGUUC DNA 1: TCTAGGCGCCCGCTAAGTTC DNA 2: GAACTTAGCGGGCGCCTAGA | 13.5
2 | sgRNA SEQ 204 ; target of sgRNA SEQ 204 (protospacer) (ssRNA ; dsDNA) RNA: UGGGGCAGUUGGUUGCCCUUAGCCUGAGGCAUUUAUUGCACUCGGGAAGUACCAUUUCUCAGAAAUGGUACAUCCAACCGUGCUGUUUCCUCCCCACG DNA 1: CGTGCTGTTTCCTCCCCACG DNA 2: CGTGGGGAGGAAACAGCACG | 19.4
3 | sgRNA SEQ 206 ; target of sgRNA SEQ 206 (protospacer) (ssRNA ; dsDNA) RNA: UGGGGCAGUUGGUUGCCCUUAGCCUGAGGCAUUUAUUGCACUCGGGAAGUACCAUUUCUCAGAAAUGGUACAUCCAACGGGGGCGGGGGGGAGAAAAA DNA 1: GGGGGCGGGGGGGAGAAAAA DNA 2: TTTTTCTCCCCCCCGCCCCC | 18.4
